Measurements reported in patent US20110319338A1, “PEPTIDES THAT BIND EUKARYOTIC TRANSLATION INITIATION FACTOR 4E” (The Board of Regents of the University of Texas System, priority 2008, published 2011).
Read-outs that look alike come from different tables or passages of the source.

Assays:
[1] = target: T1, binding of eIF4E to eIF4G (Homo sapiens, UniProt P06730); test: Immunoprecipitation with eIF4E antibody and Western blot with eIF4G antibody, OVCAR-3 cell lysate incubated with peptide; conditions: peptide 3 micromoles per liter, 250 micrograms OVCAR-3 cell lysate
T1 construct: endogenous in cells; host or cells: OVCAR-3 cell lysate
Experimental: (§1) FIGS. 1A-1G. 4EBP peptides bind eIF4E and inhibit binding of eIF4E to eIF4G. (FIG. 1A) Sequences of peptides comprising residues 49 to 68 of 4EBP1 and 4EBP2. (FIG. 1B) Biotinylated peptides (3 micromoles per liter) were incubated with 250 micrograms of OVCAR-3 cell lysate. Peptides were pulled-down using streptavidin-agarose. Precipitates (P) and supernatants (S) were analyzed by Western blot using eIF4E antibody. In (FIG. 1C), immunoprecipitation was performed using eIF4E antibody, and Western blot performed using eIF4G antibody. (FIG. 1D) Sequences of wild-type and mutant 4EBP peptides fused to TAT (mutant residues are highlighted). (FIG. 1E) OVCAR-3 cells were treated with biotinylated peptides (3 micromoles per liter, final concentration) for 16 hours. Internalized peptides were detected by staining fixed cells with Texas Red-conjugated streptavidin. Nuclei were visualized by staining with 4′,6-Diamidino-2-Phenylindole (DAPI). (FIGS. 1F and 1G) OVCAR-3 cell lysates were incubated with peptides as described for FIG. 1B. In (FIG. 1F), immunoprecipitation was performed using streptavidin-agarose and Western blot performed using eIF4E antibody. In (FIG. 1G), immunoprecipitation was performed using eIF4E antibody, and Western blot performed using eIF4G antibody.
(§2) FIGS. 3A-3H. Uptake, binding and inhibitory effects of [DLys6]GnRH-4EBP fusion peptides. (FIG. 3A) Sequences of [DLys6]GnRH, and wild-type and mutant 4EBP1 peptides fused to the agonist. (FIG. 3B) Western blot of GnRH-RI levels in OVCAR-3, ES-2, MDA-MB-231, BJ, HUVEC and SKOV3 cells. (FIG. 3C) Detection of biotinylated peptides in OVCAR-3 and SKOV3 by Texas Red-conjugated streptavidin at 16 hours after peptide addition (3 micromoles per liter). In (FIGS. 3D and 3E), biotinylated peptides were incubated with OVCAR-3 cell lysate as described in FIG. 1. In (FIG. 3D), peptide was pulled down using streptavidin-agarose. Precipitates (P) and supernatants (S) were analyzed by Western blot using eIF4E antibody. In (FIG. 3E), immunoprecipitation was performed using eIF4E antibody, and Western blot performed using eIF4G antibody. (FIG. 3F) R-Luc and F-Luc activities were assayed in ES-2-DualLuc cells at 6 hours after addition of the indicated concentrations of peptides, and are expressed relative to the respective luciferase activities in cells incubated without peptide. Shown are results of triplicate assays performed independently two times, and the statistical significance of differences in relative R-Luc and F-Luc activities in cells treated with peptide at a concentration of 10 micromoles per liter (FIG. 3G) Cells of GnRH-RI-positive and -negative lines were treated with the indicated concentrations of peptides. […]

eIF4E = target: T2, eIF4E (Homo sapiens, UniProt P06730); test: Streptavidin-agarose pull-down of biotinylated peptide from OVCAR-3 cell lysate, Western blot with eIF4E antibody; assay type: binding; conditions: biotinylated peptide 3 micromoles per liter, 250 micrograms OVCAR-3 cell lysate
T2 construct: endogenous in cells; host or cells: OVCAR-3 cell lysate
Experimental: as §1, §2

ES-2-DualLuc cells = test: Cell-based translation assay with bicistronic R-Luc/F-Luc reporter
Experimental: (§3) FIGS. 2A-2F. Inhibition of cap-dependent translation and cell growth by TAT-4EBP fusion peptides. (FIG. 2A) Representation of the pIRES-DualLuc bicistronic construct containing Renilla Luciferase (R-Luc) and firefly luciferase (F-Luc) genes. In (FIG. 2B), R-Luc and F-Luc activities were assayed in ES-2-DualLuc cells following treatment for 24 hours with rapamycin and for 3 hours with cycloheximide with the indicated concentrations of these drugs, and expressed relative to the respective luciferase activities in cells incubated without drug. Cell viability was not affected by rapamycin and cycloheximide under these conditions. In (FIG. 2C), R-Luc and F-Luc activities were assayed in ES-2-DualLuc cells following treatment for 6 hours with the indicated concentrations of peptides, and expressed relative to the respective luciferase activities in cells incubated without peptide. Shown are results of triplicate assays performed independently two times, and the statistical significance of differences in relative R-Luc and F-Luc activities in cells treated with peptide at a concentration of 10 micromoles per liter. (FIG. 2D) Viability of OVCAR-3 cells at 3 days after addition of the indicated concentrations of peptides, expressed relative to viability of cells incubated without peptide. Shown are results of triplicate assays performed in two independent experiments, and statistical significances of differences in viability of cells treated with TAT-4EBP1-WT vs. TAT-4EBP1-MT, and of cells treated with TAT-4EBP2-WT vs. TAT-4EBP2-MT at a concentration of 10 micromoles per liter. (FIG. 2E) OVCAR-3 cells at 3 days after peptide addition (10 micromoles per liter) viewed under phase-contrast microscopy. (FIG. 2F) Flow cytometric analysis of staining of terminal deoxynucleotidyl transferase-mediated dUTP nick end labeling (TUNEL) in OVCAR-3 cells at 3 days after peptide addition (10 micromoles per liter). Cells incubated for 3 days in the absence of peptide in medium with and without serum are included as controls.
FIGS. 3A-3H. Uptake, binding and inhibitory effects of [DLys6]GnRH-4EBP fusion peptides. (FIG. 3A) Sequences of [DLys6]GnRH, and wild-type and mutant 4EBP1 peptides fused to the agonist. (FIG. 3B) Western blot of GnRH-RI levels in OVCAR-3, ES-2, MDA-MB-231, BJ, HUVEC and SKOV3 cells. (FIG. 3C) Detection of biotinylated peptides in OVCAR-3 and SKOV3 by Texas Red-conjugated streptavidin at 16 hours after peptide addition (3 micromoles per liter). In (FIGS. 3D and 3E), biotinylated peptides were incubated with OVCAR-3 cell lysate as described in FIG. 1. In (FIG. 3D), peptide was pulled down using streptavidin-agarose. Precipitates (P) and supernatants (S) were analyzed by Western blot using eIF4E antibody. In (FIG. 3E), immunoprecipitation was performed using eIF4E antibody, and Western blot performed using eIF4G antibody. (FIG. 3F) R-Luc and F-Luc activities were assayed in ES-2-DualLuc cells at 6 hours after addition of the indicated concentrations of peptides, and are expressed relative to the respective luciferase activities in cells incubated without peptide. Shown are results of triplicate assays performed independently two times, and the statistical significance of differences in relative R-Luc and F-Luc activities in cells treated with peptide at a concentration of 10 micromoles per liter (FIG. 3G) Cells of GnRH-RI-positive and -negative lines were treated with the indicated concentrations of peptides. Viability at 3 days after peptide addition is expressed relative to viability of cells incubated with no peptide. Shown are results of triplicate assays performed in two independent experiments, and statistical significances of differences in viability of cells treated with wild-type vs. mutant [DLys6]GnRH-4EBP1 peptides at a concentration of 10 micromoles per liter. (FIG. 3H) ES-2 and parental SKOV3 cells at 3 days after peptide addition (30 micromoles per liter) viewed under phase-contrast microscopy. […]

OVCAR-3 cells = test: Cell viability assay (crystal violet); assay type: cell-based; conditions: OVCAR-3, 3 days after peptide addition, 0.3 to 30 micromoles per liter
Experimental: as §3, with “Shown are results of triplicate assays performed in two independent experiments, and statistical significances of differences in viability of cells treated with TAT-4EBP1-WT vs. TAT-4EBP1-MT, and of cells treated with TAT-4EBP2-WT vs. TAT-4EBP2-MT at a concentration of 10 micromoles per liter. (FIG. 2E) OVCAR-3 cells at 3 days after peptide addition (10 micromoles per liter) viewed under phase-contrast microscopy. (FIG. 2F) Flow cytometric analysis of staining of terminal deoxynucleotidyl transferase-mediated dUTP nick end labeling (TUNEL) in OVCAR-3 cells at 3 days after peptide addition (10 micromoles per liter). Cells incubated for 3 days in the absence of peptide in medium with and without serum are included as controls.” left out
FIGS. 3A-3H. […] Precipitates (P) and supernatants (S) were analyzed by Western blot using eIF4E antibody. […]

[2] = rapamycin 24 hours, cycloheximide 3 hours

T2 sequence (P06730 whole entry): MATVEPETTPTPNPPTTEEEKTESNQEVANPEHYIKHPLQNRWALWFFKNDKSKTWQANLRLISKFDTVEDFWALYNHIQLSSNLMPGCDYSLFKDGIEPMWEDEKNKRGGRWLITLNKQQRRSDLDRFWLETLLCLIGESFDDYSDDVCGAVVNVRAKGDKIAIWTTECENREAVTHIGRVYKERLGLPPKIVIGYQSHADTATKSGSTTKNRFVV
T1 sequence (P06730 2-217 limits assumed): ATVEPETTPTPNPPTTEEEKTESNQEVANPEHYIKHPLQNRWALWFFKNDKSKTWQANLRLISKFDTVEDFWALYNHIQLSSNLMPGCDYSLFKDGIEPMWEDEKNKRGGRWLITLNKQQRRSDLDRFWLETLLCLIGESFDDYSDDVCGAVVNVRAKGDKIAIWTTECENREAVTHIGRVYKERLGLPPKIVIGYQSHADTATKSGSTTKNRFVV

“4EBP2-WT: peptide containing the region of 4EBP2 corresponding to residues 49-68 of 4EBP1 (GTRIIYDRKFLLDRRNSPMA)” was tested, and the “inhibition of eIF4E binding to eIF4G” value [1] was “inhibited eIF4E from binding eIF4G” and the “binding of peptide to eIF4E” value (eIF4E) was “bound to eIF4E”.

`C[C@@H]1C[C@@H]([C@H](O)CC2CC(=O)NC(=O)C2)C(=O)[C@@H](C)C1` [cycloheximide] was tested, and the “cap-dependent translation (R-Luc read-out)” value (ES-2-DualLuc cells; [2]) was “inhibited both cap-dependent and independent translation”, the “cap-independent translation (F-Luc readout)” value (ES-2-DualLuc cells; [2]) was “inhibited both cap-dependent and independent translation” and the “cell viability under translation assay conditions” value (ES-2-DualLuc cells; [2]) was “not affected”.

`CO[C@H]1C[C@@H]2CC[C@@H](C)[C@@](O)(O2)C(=O)C(=O)N2CCCC[C@H]2C(=O)O[C@H]([C@H](C)C[C@@H]2CC[C@@H](O)[C@H](OC)C2)CC(=O)[C@H](C)/C=C(\C)[C@@H](O)[C@@H](OC)C(=O)[C@H](C)C[C@H](C)/C=C/C=C/C=C/1C` [rapamycin] was tested, and the “cell viability under translation assay conditions” value (ES-2-DualLuc cells) was “not affected”.

“TAT-4EBP1-MT: TAT-4EBP1 fusion peptide in which Tyr-54, Arg-56 and Leu-59 were substituted by Gly (YGRKKRRQRRRGTRIIGDGKFGMECRNSPVT)” was tested, and the “inhibition of eIF4E binding to eIF4G” value [1] was “substantially impaired” and the “binding of peptide to eIF4E” value (eIF4E) was “substantially impaired”.

“TAT-4EBP2-MT: TAT-4EBP2 fusion peptide in which Tyr-54, Arg-56 and Leu-59 were substituted by Gly (YGRKKRRQRRRGTRIIGDGKFGLDRRNSPMA)” was tested, and the “inhibition of eIF4E binding to eIF4G” value [1] was “substantially impaired” and the “binding of peptide to eIF4E” value (eIF4E) was “substantially impaired”.

For “TAT-4EBP2-WT: wild-type 4EBP2 residues fused to cell-penetrating residues of HIV TAT protein (YGRKKRRQRRRGTRIIYDRKFLLDRRNSPMA)”, the “cap-dependent translation (R-Luc read-out)” value (ES-2-DualLuc cells; peptide 6 hours, 0.3 to 10 micromoles per liter, relative to cells without peptide) was “also inhibited cap-dependent translation, but was slightly less effective than TAT-4EBP1-WT” and the “cell viability / growth” value (OVCAR-3 cells) was “decreased cell viability in a dose-dependent manner”.
